How the values were obtained:
[1] = tested on: rice thioredoxin with S-tag (recombinant, expressed in E. coli from pNOV4113)
[2] = tested on: soybean thioredoxin prep without S-tag (recombinant, expressed in E. coli from pNOV4112, S-Tag removed by thrombin cleavage)
[3] = tested on: soybean thioredoxin with S-tag (recombinant, expressed in E. coli from pNOV4112)
[4] = tested on: insulin

Row | Substance | reduction of thioredoxin in vitro [1] | reduction of thioredoxin, DTNB assay [1] | reduction of thioredoxin, DTNB assay [2] | reduction of thioredoxin, DTNB assay [3] | OD 650 nm (after 31 minutes), insulin reduction assay, thioredoxin 4 ug as printed in the row [4] | OD 650 nm (after 31 minutes), insulin reduction assay, thioredoxin 5 ug as printed in the row [4] | OD 650 nm (after 31 minutes), insulin reduction assay, thioredoxin 6 ug as printed in the row [4] | OD 650 nm (after 31 minutes), insulin reduction assay, thioredoxin 7 ug as printed in the row [4] | Rate of Precipitation (change of A650/min), insulin reduction assay, thioredoxin 4 ug as printed in the row [4] | Rate of Precipitation (change of A650/min), insulin reduction assay, thioredoxin 5 ug as printed in the row [4] | Rate of Precipitation (change of A650/min), insulin reduction assay, thioredoxin 6 ug as printed in the row [4] | Rate of Precipitation (change of A650/min), insulin reduction assay, thioredoxin 7 ug as printed in the row [4]
1 | Arabidopsis NADPH thioredoxin reductase without S-tag (recombinant, expressed in E. coli from pNOV4115) | Arabidopsis thioredoxin reductase is found to be active in reducing rice thioredoxin in vitro | can also reduce rice thioredoxin | can reduce soybean thioredoxin with and without the S-tag | can reduce soybean thioredoxin with and without the S-tag |  |  |  |  |  |  |  | 
2 | soybean thioredoxin prep without S-tag (recombinant, expressed in E. coli from pNOV4112, S-Tag removed by thrombin cleavage) |  |  |  |  | 0.001 OD 650 nm | 0.0077 OD 650 nm | 0.0084 OD 650 nm | 0.0117 OD 650 nm | 3.2e-05 A650/min | 0.00025 A650/min | 0.00027 A650/min | 0.00038 A650/min
